The text below walks through data of US20040209800A1, “Use of mx gtpases in the prognosis and treatment of cancer” (priority 2001, published 2004).

Residue numbers refer to the chain shown, from its start. “Also recorded” adds a separate entry of the source.

The subject of one assay is PC-3 cells. The experiment in a line: MxA protein induction, immunohistochemistry and Western blot. Conditions: 1000 IU of IFN-α/mL, 24 hours. Type of assay: cell-based, human. On the procedure: (§1) PC-3 and PC-3M test cells also were treated with recombinant IFN-α (Novartis Pharma—Basel, Switzerland) (1000 IU of IFN-α/mL), grown for 24 hours, fixed, permeabilized, and subjected to immunohistochemical analysis using anti-MxA antibody and DAPI nuclear counterstaining to locate individual cells. […] Western blotting with […] using 100 μg cell lysates confirmed IFN-α-induced increase in MxA expression in both cell lines.
A general note: Immunoblotting shows a protein as a band on a membrane.

For assay [1], the system named is PC-3M cells. Described as above. Conditions: 1000 IU of IFN-α/mL, 24 hours. Type of assay: cell-based, human. The method, then: as §1
Assay [2] relates to PC-3M cells. The experiment in a line: Primary tumor growth assay. The format is in vivo, beige/SCID mice. To be noted: 2×10^6 PC3M-MxA cells subcutaneously; β-gal control 29.8±3.4 days. The method, then:
The effect of MxA expression on tumor growth in vivo was first tested using a primary tumor growth assay. 2×10^6 recombinant PC-3M cells expressing […] MxA (PC3M-MxA) or 2×10^6 recombinant PC-3M-β-gal cells (expressing β-gal) were injected subcutaneously into 30 beige/SCID mice (Charles River Laboratories, Wilmington, Mass.), and the time to formation of a 2-cm subcutaneous tumor (as measured using Vernier calipers) was determined by monitoring the mice at least three times weekly for evidence of tumor development, quantification of tumor size, and evidence of tumor/metastasis-associated morbidity. Subcutaneous tumor size was quantified using Vernier Calipers. Criteria for sacrifice included tumor growth to greater than 2.0 cm, ill thrift, anorexia, dehydration, decreased activity and grooming behavior, and dyspnea.

The test system of assay [3] is PC-3M cells. The experiment in a line: Time-lapse video microscopy of cell motility. To be noted: PC-3M-MxA vs PC-3M-β-gal cells, 250 minute recording. Type of assay: cell-based, human. The method, then: Using time-lapse video microscopy, PC-3M cells stably transfected with an MxA construct (as described in Example 2) were observed and compared to control PC-3M-β-gal cells. Specifically, PC-3M-βgal and PC-3M-MxA cells were seeded in 25 cm^2 flasks and cultured for 24 hours. After 24 hours, the flasks were filled with pre-warmed complete medium and cell motility was observed using by phase-contrast microscopy using an Optronics cooled CCD camera mounted on a Leica DMIRB inverted microscope. During observation, the cells were maintained at 37° C. using an ASI 400 Air Stream Incubator (Nevtek—Burnsville, Va.). Time-lapse video microscopy (250 minute recording converted into 1 minute of playing time) was converted into QuickTime movies using Adobe Premier 5.1.

Another assay has as its system actin. The assay is described as follows: Coimmunoprecipitation with actin in PC-3 cells. The format is binding, human. Conditions: endogenous MxA in PC-3 cells. On the procedure: (§2) Immunoprecipitation was performed by known techniques (Bang et al., Proc. Natl. Acad. Sci. USA 91:5330-5334 (1994)). Briefly, cell lysates were obtained and incubated with the indicated antibodies overnight at 4° C. The immunocomplex was immobilized on protein A/G-Sepharose (Santa Cruz Biotechnologies), resolved on SDS-polyacrylamide gels, transferred to nitrocellulose filters, and immunoblotted with the indicated antibodies.

Assay [4] has as its system PC-3M cells. The experiment in a line: In vitro motility, migration through 8-μm pore membrane. The format is cell-based, human. To be noted: 24 hours. On the procedure:
The PC-3M cells of Example 1 were transfected with a pCIneo plasmid (Promega, Madison, Wis.) expressing full-length MxA or a plasmid constructed from pHβ Apr-1 comprising an MxA sequence operably linked to a CMV promoter, and two stable cell lines were selected. PC-3M cells stably transfected with a plasmid expressing β-galactosidase (β-gal) were used as a control. MXA expression was not detected in the PC-3M β-gal cells.
The motility of PC-3M transfectants in vitro was tested by measuring the ability of the cells to migrate through pores in a membrane. Briefly, FALCON cell culture inserts with an 8-μm pore-size PET membrane (Fisher Scientific, Franklin Lake, N.J.) were placed into the wells of a 24-well plate, each well containing 0.5 ml of complete medium (RPMI 1640 with 10% FBS, 1% antimycotic-antibiotic solution, and 500 μg mL^−1 G418). Control and MxA-transfected cells were trypsinized, suspended at 1.5×10^5 cells/ml in complete medium, and 350μl of the cell suspension was added to each insert. Following incubation for 24 hours at 37° C., cells from the upper surface of the membrane were removed by scrubbing with a cotton swab. Cells that had migrated through the insert and adhered to the bottom of the membrane were Wright stained using the CAMCO Quik Stain kit (Fisher Scientific), visualized using a Zeiss Axiophot microscope or Leica DMIRB microscope, and counted.

In assay [5] the test system is insoluble cytoskeletal matrix. The experiment in a line: Cytoskeletal extraction and anti-FLAG immunological analysis. The format is cell-based. To be noted: transfected LOX cells, anti-FLAG antibody. On the procedure: MxA-LOX cells and T103 MxA-LOX cells were subjected to immunological analysis using known techniques (see Choi et al., J. Biol. Chem., 272:28479-28484 (1997)) with an anti-FLAG antibody after cytoskeletal extraction, which removed all the soluble proteins, leaving only cytoskeleton-associated proteins. Cytoskeletal preparations were prepared by permeabilizing the cells with 1% Triton X-100 in PHEM buffer (60 mM piperazine-N-N′-bis(2-ethane-sulfonic acid) (PIPES; pH 6.9), 25 mM N-2-hydroxyethlypiperazine-N′-2-ethanesulfonic acid (HEPES), 2 mM MgCl2, and 10 mM ethylene glycol-bis(b-aminoethyl ether)-N,N,N′N′-tetraacetic acid (EGTA, pH 6.9)) for 2 minutes, fixing the cells with 3.7% formaldehyde for 10 minutes at room temperature (see Hartwig, J. Cell Biol. 118:1421-1442 (1992)). Fixed cells were incubated with appropriate primary and secondary antibodies and the nuclei counterstained with 4,6-daimidino-2-phenylinodole (DAPI). Cells were visualized with a Zeiss Axiophot microscope and images were captured using an Optronics CCD camera.
To further investigate the relationship between MxA and microtubules, soluble proteins were extracted from the LOX cells, using standard techniques, and the insoluble cytoskeletal matrix was examined for associated proteins.

The subject of the next assay is tubulin. The experiment in a line: Coimmunoprecipitation with anti-α-tubulin and anti-MxA antibodies. The format is binding. Conditions: transfected LOX cell lysates. The method, then:
as §2
Using the LOX cells stably transfected with the […] MxA construct, as described in the preceding Examples, whole cell lysates were prepared and immunoprecipitated with anti-α-tubulin antibodies, anti-MxA antibodies, and protein A/protein G-coated Sepharose beads alone, and the resulting compositions were subjected to Western blotting with anti-FLAG antibody (Sigma).

The subject of another assay is LOX cells. The assay is described as follows: In vitro invasion, BIOCOAT Matrigel invasion chamber. Type of assay: cell-based, human. Conditions: stably transfected LOX cells vs β-gal control LOX cells.
Assay [6] concerns PC-3M cells. The assay is described as follows: Experimental hepatic metastasis assay. Type of assay: in vivo, beige/SCID mice. To be noted: 2×10^6 PC3M-MxA cells into the spleen; β-gal control 23.3±3.3 days. The method, then:
The in vivo effects of MxA expression on tumor growth and metastatic potential was also tested using an experimental hepatic metastasis assay. Briefly, 2×10^6 cells from the PC3M-MxA cell line and the PC-3M-β-gal cell line were injected into the spleens of beige/SCID mice. Mice were monitored at least three times weekly for evidence of tumor development, quantification of tumor size, and evidence of tumor and/or metastasis-associated morbidity. Animal survival time was determined, and mean survival time was compared between the two treatment groups.

Regarding IFN-α, the results for the “level of MxA protein after exposure to IFN-α” value with PC-3 cells and with PC-3M cells [1] were “increased substantially” and “became detectable”, respectively.

B1: MxA: full-length human MxA GTPase, 78 kDa, expressed from a transfected plasmid in PC-3M or LOX cells (protein)
chain: MVVSEVDIAKADPAAASHPLLLNGDATVAQKNPGSVAENNLCSQYEEKVRPCIDLIDSLRALGVEQDLALPAIAVIGDQSSGKSSVLEALSGVALPRGSGIVTRCPLVLKLKKLVNEDKWRGKVSYQDYEIEISDASEVEKEINKAQNAIAGEGMGISHELITLEISSRDVPDLTLIDLPGITRVAVGNQPADIGYKIKTLIKKYIQRQETISLVVVPSNVDIATTEALSMAQEVDPEGDRTIGILTKPDLVDKGTEDKVVDVVRNLVFHLKKGYMIVKCRGQQEIQDQLSLSEALQREKIFFENHPYFRDLLEEGKATVPCLAEKLTSELITHICKSLPLLENQIKETHQRITEELQKYGVDIPEDENEKMFFLIDKVNAFNQDITALMQGEETVGEEDIRLFTRLRHEFHKWSTIIENNFQEGHKILSRKIQKFENQYRGRELPGFVNYRTFETIVKQQIKALEEPAVDMLHTVTDMVRLAFTDVSIKNFEEFFNLHRTAKSKIEDIRAEQEREGEKLIRLHFQMEQIVYCQDQVYRGALQKVREKELEEEKKKKSWDFGAFQSSSATDSSMEEIFQHLMAYHQEASKRISSHIPLIIQFFMLQTYGQQLQKAMLQLLQDKDTYSWLLKERSDTSDKRKFLKERLARLTQARRRLAQFPG
On to B1, for which the “time to develop a 2-cm tumor mass” value with PC-3M cells [2] is 46.8 ± 9.9 days. For the same molecule, the “mobility of PC-3M cells by visual observation” value in the assay with PC-3M cells [3] was “significantly inhibited”. Further, the co-immunoprecipitation with actin entry with actin was “did not co-immunoprecipitate”. The “motility, % of the β-gal control cells” value in the assay with PC-3M cells [4] (PC-3M stably expressing MxA, lowest level seen) amounted to 24.3%. Besides, the “motility, % lower than the β-gal control cells” value in the assay with PC-3M cells [4] (all MxA-expressing PC-3M cells, both cases tested) was “at least 22.4%”. Further, the “association with insoluble cytoskeletal matrix after cytoskeletal extraction” value in assay [5] is “remained bound to the matrix”. In addition, the “association with tubulin by coimmunoprecipitation” value with tubulin is “associated with cell microtubules and particularly tubulin; also recorded: detected in the complex with tubulin”. Further, in the assay on LOX cells, the “in vitro invasive activity, % of control cells” value stood at 15.1%. The molecule also registered a survival with PC-3M cells [6] of 54.3 ± 11.2 days.

B2: T103 mutant MxA: FLAG-tagged MxA with threonine 103 mutated to alanine; the mutation inactivates GTPase activity (protein)
chain: B1 chain with T103A
modifications: left off: small tags and cut ends
As for B2, the “association with insoluble cytoskeletal matrix after cytoskeletal extraction” value in assay [5] is reported as “undetectable; also recorded: washed out of the insoluble preparation”. Moreover, the “association with tubulin by coimmunoprecipitation” value with tubulin is “did not associate”. The “in vitro invasive activity, % of control cells” value with LOX cells is 119%.
